Source: US12697350B2, “Methods and compositions for treating a premature termination codon-mediated disorder” (Tevard Biosciences, Inc., priority 2019, dated 2026)
Residue numbers refer to the chain shown, from its start.

B1: tRNA-Gln-TTG-3-1-TTA-SUP (nucleic acid)
chain: GGCCCCATGGTGTAATGGTTAGCACTCTGGACTTTAAATCCAGCGATCCGAGTTCAAATCTCGGTGGGACCT
modifications: expressed or natural sequence
B2: tRNA-Gln-TTG-1-1-TTA-SUP (nucleic acid)
chain: B1 chain with C3T
modifications: chemistry not fully specified
B3: tRNA-Gln-CTG-1-1-CTA-SUP (nucleic acid)
chain: B1 chain with C3T, T34C
modifications: chemistry not fully specified

Key:
[1] = system: EGFP-Q69X-TAA reporter; assay: 100 nt 5′ leader sequence library with GlnTTA suppressor tRNA #163, EGFP-Q69X-TAA reporter, Flp-In-293 cells (FIGS. 30, 31, 32); type: cell-based, human
Description: FIG. 27 is a schematic representation of the constructs used to test the impact of a 5′ leader sequence on the read-through of a premature termination codon (PTC) by a suppressor tRNA. Constructs contain (i) a 100 bp 5′ leader sequence derived from genomic DNA located upstream of tRNA genes that are highly expressed in HEK293 cells, (ii) a single copy of either the ArgTCA suppressor tRNA #115 (SEQ ID NO: 18) or the GlnTTA suppressor tRNA #163 (SEQ ID NO: 45), and (iii) an RNA polymerase III termination signal (“Term”).
FIG. 30 is a graph depicting the readthrough activity of the indicated GlnTTA suppressor tRNA expression constructs as measured by flow cytometry in Flp-In-293 cells at ~24 hours post transfection. […]
FIG. 31 is a graph depicting the readthrough activity of the indicated GlnTTA suppressor tRNA expression constructs as measured by flow cytometry in Flp-In-293 cells at ~24 hours post transfection. […]
The leader sequences in combination with the ArgTCA suppressor tRNA #115 (SEQ ID NO: 18) or the GlnTTA suppressor tRNA #163 (SEQ ID NO: 45) were tested for PTC readthrough activity by flow cytometry in cell lines co-transfected with an EGFP-R96X-TGA reporter (SEQ ID NO: 31) for ArgTCA constructs or an EGFP-Q69X-TAA reporter (SEQ ID NO: 175) for GlnTTA constructs.

[2] = system: Neuro-2a cells; type: cell-based, mouse
Procedure: FIG. 23 is a graph depicting cell viability from FIG. 22 as measured by flow cytometry at ~48 hours post transfection. Neuro-2a cells were transfected with an expression construct containing the EGFP-R96X-TGA reporter (“GFP-PTC”) and either (i) transfected with an expression construct including the ArgTCA suppressor tRNA #115 (SEQ ID NO: 18) at the indicated copy number on the same construct, or (ii) treated with ataluren at the indicated concentration, (iii) treated with gentamicin at the indication concentration, or (iv) treated with G418 at the indicated concentration. For all experimental conditions, cell culture medium was replaced with fresh medium ~6 hour after transfection and the indicated drugs at the indicated concentrations were added at this point. A reporter containing wildtype GFP without a PTC (“WT-GFP”) was used as a control. “Mock” indicates mock transfected cells. “4×TCG” indicates cells transfected with an expression construct that contains four copies of a wild-type Arg-tRNA with a TCG anticodon and the EGFP-R96X-TGA reporter. Cell viability was assessed by flow cytometry using 7-Amino Actinomycin D (7-AAD), a membrane impermeant dye that is generally excluded from viable cells.
FIG. 34 is a graph depicting cell viability from FIG. 33 as measured by flow cytometry at ~48 hours post transfection. […] Cell viability was assessed by flow cytometry using 7-Amino Actinomycin D (7-AAD), a membrane impermeant dye that is generally excluded from viable cells.
FIG. 36 is a graph depicting cell viability from FIG. 35 as measured by flow cytometry at ~48 hours post transfection. […] Cell viability was assessed by flow cytometry using 7-Amino Actinomycin D (7-AAD), a membrane impermeant dye that is generally excluded from viable cells. […]

[3] = system: EGFP-Q69X-TAA reporter; assay: PTC readthrough of GlnTTA suppressor tRNA #002 versus nonsense suppression drugs, EGFP-Q69X-TAA reporter, Neuro-2a cells (FIG. 33); type: cell-based, mouse; details: versus ataluren, gentamicin, G418 (FIG. 33)
Procedure: FIG. 33 is a graph depicting the percentage of EGFP positive cells as measured by flow cytometry in three independent experiments at ~48 hours post transfection. Neuro-2a cells were transfected with an expression construct containing the EGFP-Q69X-TAA reporter (“EGFP-PTC”) (SEQ ID NO: 175) and either (i) including the GlnTTA suppressor tRNA #002 (SEQ ID NO: 36) at the indicated copy number on the same construct, or (ii) treated with ataluren at the indicated concentration, (iii) treated with gentamicin at the indication concentration, or (iv) treated with G418 at the indicated concentration. […]
(§1) The suppressor tRNAs were tested alongside nonsense suppression drugs translarna (ataluren), gentamicin, and G418 (geneticin). PTC readthrough activity was measured in Neuro-2a cells ~48 hours after transfection with an expression construct containing a CAG:NLS-EGFP (Q69X-TAA) reporter (as described in Example 4, SEQ ID NO: 175) and either (i) including a Gln suppressor tRNA (either #002, tRNA-Gln-TTG-1-1-TTA-SUP, SEQ ID NO: 36, or #196, tRNA-Gln-TTG-1-1-CTA-SUP, SEQ ID NO: 178, both as described in Example 4) at the indicated copy number on the same construct, or (ii) treated with ataluren, (iii) treated with gentamicin, or (iv) treated with G418. […] PTC readthrough activity was measured as the percentage of EGFP positive cells as measured by flow cytometry. […]

[4] = system: EGFP-Q69X-TAG reporter; assay: PTC readthrough of GlnCTA suppressor tRNA #196 versus nonsense suppression drugs, EGFP-Q69X-TAG reporter, Neuro-2a cells (FIG. 35); type: cell-based, mouse; details: versus ataluren, gentamicin, G418 (FIG. 35)
Procedure: FIG. 35 is a graph depicting the percentage of EGFP positive cells as measured by flow cytometry in three independent experiments at ~48 hours post transfection. Neuro-2a cells were transfected with an expression construct containing the EGFP-Q69X-TAG reporter (“EGFP-PTC”) (SEQ ID NO: 176) and either (i) including the GlncTA suppressor tRNA #196 (SEQ ID NO: 178) at the indicated copy number on the same construct, or (ii) treated with ataluren at the indicated concentration, (iii) treated with gentamicin at the indication concentration, or (iv) treated with G418 at the indicated concentration. […]
as §1

Molecule	readthrough activity when combined with the identified leader sequences [1]	cell viability [2]	PTC readthrough compared with nonsense suppression drugs [3]	PTC readthrough compared with nonsense suppression drugs [4]
B1	showed high readthrough activity			
B2		not accompanied by a decrease in cell viability	greater readthrough than any of the nonsense suppression drugs	
B3		not accompanied by a decrease in cell viability		greater readthrough than any of the nonsense suppression drugs
